Assay results: article PMC7980463 (Proceedings of the National Academy of Sciences of the …, 2021)
Where a chain is given by its changes, count along the chain named.

T1: MsGyrB47 (D348A) (M. smegmatis, UniProt A0QNE0 1-427, D348A)
T1 sequence: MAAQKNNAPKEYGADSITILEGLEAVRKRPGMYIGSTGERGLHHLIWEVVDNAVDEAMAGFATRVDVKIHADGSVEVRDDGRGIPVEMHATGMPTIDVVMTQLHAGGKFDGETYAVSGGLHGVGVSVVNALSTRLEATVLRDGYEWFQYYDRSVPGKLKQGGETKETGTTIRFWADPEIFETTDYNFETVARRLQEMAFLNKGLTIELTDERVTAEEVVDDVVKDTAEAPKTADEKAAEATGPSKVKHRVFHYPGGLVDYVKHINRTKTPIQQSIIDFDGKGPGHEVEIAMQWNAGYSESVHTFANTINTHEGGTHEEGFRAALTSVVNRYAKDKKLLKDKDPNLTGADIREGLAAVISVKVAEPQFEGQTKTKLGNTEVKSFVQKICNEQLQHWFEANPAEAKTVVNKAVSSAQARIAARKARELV

B1: MsGyrB47, the ATPase (N-terminal) domain of M. smegmatis GyrB (domain or fragment)
chain: T1 sequence with A348D
B2: Mycobacterium smegmatis MfpA (natural protein, M. smegmatis)
chain: MRIGANGDETVWADEEFAGRDFRDEDLSRIRTERVVFTECDFSGVDLSESEHHGSAFRNCTFRRSTIWHSTFTNCSLLGSVFTECRIRPVTFVECDFTLAVLGGCDLRAVDLSDCRLREVSLVGADLRKAVLRRADLTGSRVQDARLEEADLRGTRVDPTFWTTAKVRGAKIDIEQALAYAAAHGLAVHGG

Key:
[1] = biological target: the molecule itself; experiment: crystal structure
[2] = biological target: T1, MsGyrB47 (D348A); experiment: cell-based or functional assay

| Binder | stoichiometry N [1] | stimulation of the ATPase activity by MsMfpA, compared with wild-type MsGyrB47 [2] [fold decrease] |
| --- | --- | --- |
| B1 | 2 | – |
| B2 | – | ~2 |
